Reference: paper PMC2759774 (Molecular microbiology, 2009)

T1: MinC^C/MinD complex (MalE-MinC^C with MinD on phospholipid vesicles) (E. coli, UniProt P18196 116-231; P0AEZ3 1-270)
T1 sequence (looked up) 1: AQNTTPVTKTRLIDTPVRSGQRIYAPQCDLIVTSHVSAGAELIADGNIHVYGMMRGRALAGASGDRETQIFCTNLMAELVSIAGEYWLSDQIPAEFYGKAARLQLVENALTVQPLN
T1 sequence (looked up) 2: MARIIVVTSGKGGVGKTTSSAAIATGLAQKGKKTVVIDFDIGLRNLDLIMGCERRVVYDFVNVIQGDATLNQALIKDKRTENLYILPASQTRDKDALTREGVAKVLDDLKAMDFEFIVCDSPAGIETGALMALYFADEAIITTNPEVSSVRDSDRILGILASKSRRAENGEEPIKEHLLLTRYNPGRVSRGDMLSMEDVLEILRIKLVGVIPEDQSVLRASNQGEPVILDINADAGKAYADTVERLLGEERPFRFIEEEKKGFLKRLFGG

T2: MinD (E. coli, UniProt P0AEZ3 1-270)
T2 sequence (looked up): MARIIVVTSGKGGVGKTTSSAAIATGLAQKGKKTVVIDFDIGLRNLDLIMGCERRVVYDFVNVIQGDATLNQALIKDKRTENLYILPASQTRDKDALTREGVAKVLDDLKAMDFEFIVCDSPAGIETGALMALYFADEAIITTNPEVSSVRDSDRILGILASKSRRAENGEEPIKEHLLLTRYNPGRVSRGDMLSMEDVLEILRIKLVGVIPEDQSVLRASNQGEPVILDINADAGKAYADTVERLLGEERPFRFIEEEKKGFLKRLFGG


Legend:
[1] = target: T1, MinC^C/MinD complex (MalE-MinC^C with …); experiment: co-sedimentation
MinD = target: T2, MinD; experiment: co-sedimentation

Row | binding result [1] | binding result (MinD) | Binder
1 | binds |  | WT FtsZ (natural protein, E. coli, UniProt P0A9A6 1-383, looked up) MFEPMELTNDAVIKVIGVGGGGGNAVEHMVRERIEGVEFFAVNTDAQALRKTAVGQTIQIGSGITKGLGAGANPEVGRNAADEDRDALRAALEGADMVFIAAGMGGGTGTGAAPVVAEVAKDLGILTVAVVTKPFNFEGKKRMAFAEQGITELSKHVDSLITIPNDKLLKVLGRGISLLDAFGAANDVLKGAVQGIAELITRPGLMNVDFADVRTVMSEMGYAMMGSGVASGEDRAEEAAEMAISSPLLEDIDLSGARGVLVNITAGFDLRLDEFETVGNTIRAFASDNATVVIGTSLDPDMNDELRVTVVATGIGMDKRPEITLVTNKQVQQPVMDRYQQHGMAPLTQEQKPVAKVVNDNAPQTAKEPDYLDIPAFLRKQAD
2 |  | binds | MalE-MinC^C (domain or fragment, E. coli, UniProt P18196 116-231, looked up) AQNTTPVTKTRLIDTPVRSGQRIYAPQCDLIVTSHVSAGAELIADGNIHVYGMMRGRALAGASGDRETQIFCTNLMAELVSIAGEYWLSDQIPAEFYGKAARLQLVENALTVQPLN
